In patent US10428140B2, “Anti-EphA4 antibody” (EISAI R&D MANAGEMENT CO., LTD., priority 2015, dated 2019):

Legend:
[1] = tested on: EphA4 autophosphorylation induced by mouse Ephrin A1; assay: In vivo competition assay using mouse newborns (EphA4 autophosphorylation in cerebral hemisphere); conditions: 8-day-old mouse, 300 mg/kg subcutaneous
Experimental: The in vivo competition assay using mouse newborns was conducted according to the following steps. PBS (Wako Pure Chemical Industries), antibody A, or a control antibody (mouse anti-dinitrophenol antibody) produced with a conventional procedure by immunizing […] with dinitrophenol was subcutaneously administered at a dose of 300 mg/kg (30 mL/kg) to each 8-day-old mouse (Charles River Laboratories Japan). After 24 hours, the scalp was incised under 4% isoflurane (Intervet) anesthesia, and mouse Ephrin A1-Fc chimera (300 pmol/head, R&D Systems) or PBS (Wako Pure Chemical Industries) was administered into the lateral ventricle. 1 hour thereafter, the mouse was euthanized by decapitation, followed by the extirpation of the cerebral hemisphere. […] 3×SDS sample buffer was added to a portion of the homogenate, which was then boiled for 10 minutes, followed by protein quantification. […] The remaining homogenate was subjected to protein quantification and then dispensed in an amount corresponding to 3 mg of protein, and 1% Triton X-100 (Wako Pure Chemical Industries) and 0.1% SDS (Nacalai Tesque) were added thereto. […] Western blotting using an anti-EphA4 monoclonal antibody (Abnova) was further performed, and band intensity was quantified to calculate a value of phosphorylated EphA4/total EphA4. […]

[2] = target: T1, mouse EphA4 (binding to mouse Ephrin A1) (Mus musculus, UniProt Q03137); assay: Mouse EphA4-mouse ligand binding inhibition ELISA (Ephrin A1-Fc); conditions: mouse EphA4-mouse ligand binding inhibition
T1 construct: made in house; host or cells: HEK293EBNA cells
Experimental: Antibody A obtained in Example 1 was evaluated for its inhibitory activity against the binding between mouse EphA4 and its mouse ligand according to the following steps. Each well of a 96-well plate (Nunc) was coated with an anti-alkaline phosphatase antibody (Thermo Fisher Scientific). After incubation overnight at 4° C., each well was blocked with 1% BlockAce (DS Pharma Biomedical) at room temperature for 1 hour. After washing with 0.05% Tween 20/PBS (Thermo Fisher Scientific) three times, the mouse EphA4 extracellular region-SEAP-His protein obtained by the method of Example 1 was added (final concentration: 10 nM) to each well and incubated at room temperature for 1 hour. After washing three times, ligands and serially diluted antibody A (0, 0.001, 0.003, 0.01, 0.03, 0.1, 0.3, 1,3, 10, 30, 100, 300, and 1000 nM) or a known EphA4 inhibitor KYL peptide (KYLPYWPVLSSL, 0, 0.003, 0.01, 0.03, 0.1, 0.3, 1, 3, 10, 30, and 100 μM, its synthesis was outsourced to Hokkaido System Science) or compound 1 (0, 0.03, 0.1, 0.3, 1,3, 10, 30, 100, 300, and 1000 μM, Formula 1, Matrix Scientific) were added to each well. The ligands used were mouse Ephrin A1-Fc chimera (R&D Systems, final concentration: 20 nM) and mouse Ephrin B2-Fc chimera (R&D Systems, final concentration: 0.6 nM). […] The absorbance at 450 nm was read using a microplate reader (Molecular Devices).

T1 sequence (Q03137 with tags, fused parts or gaps): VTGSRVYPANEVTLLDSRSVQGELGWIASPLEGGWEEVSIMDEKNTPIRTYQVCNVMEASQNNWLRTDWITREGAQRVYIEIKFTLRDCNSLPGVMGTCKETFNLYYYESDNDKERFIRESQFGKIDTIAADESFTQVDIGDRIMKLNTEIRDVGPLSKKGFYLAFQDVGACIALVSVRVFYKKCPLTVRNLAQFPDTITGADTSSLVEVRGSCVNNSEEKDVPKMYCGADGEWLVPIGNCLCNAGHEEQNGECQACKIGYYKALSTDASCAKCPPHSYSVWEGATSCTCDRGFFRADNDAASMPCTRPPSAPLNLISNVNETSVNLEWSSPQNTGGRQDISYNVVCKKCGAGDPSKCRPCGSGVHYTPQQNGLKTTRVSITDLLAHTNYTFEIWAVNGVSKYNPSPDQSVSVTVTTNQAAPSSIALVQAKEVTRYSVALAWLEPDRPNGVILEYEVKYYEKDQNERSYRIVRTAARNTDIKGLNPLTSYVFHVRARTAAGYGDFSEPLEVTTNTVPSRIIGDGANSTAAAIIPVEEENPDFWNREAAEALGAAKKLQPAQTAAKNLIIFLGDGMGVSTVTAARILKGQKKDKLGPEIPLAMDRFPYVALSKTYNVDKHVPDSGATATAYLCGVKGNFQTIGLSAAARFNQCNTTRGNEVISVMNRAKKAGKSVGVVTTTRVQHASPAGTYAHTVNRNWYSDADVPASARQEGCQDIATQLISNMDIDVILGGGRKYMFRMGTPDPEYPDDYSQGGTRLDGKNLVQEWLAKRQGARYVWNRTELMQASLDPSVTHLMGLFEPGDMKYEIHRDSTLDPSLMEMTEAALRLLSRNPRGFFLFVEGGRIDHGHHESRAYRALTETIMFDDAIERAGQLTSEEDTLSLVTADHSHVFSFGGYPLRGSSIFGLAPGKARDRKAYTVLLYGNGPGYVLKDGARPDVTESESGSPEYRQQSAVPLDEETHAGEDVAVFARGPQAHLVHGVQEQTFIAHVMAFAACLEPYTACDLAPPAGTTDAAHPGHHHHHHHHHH

B1: antibody A: mouse anti-EphA4 monoclonal antibody, IgG1/κ; heavy chain variable region SEQ ID NO: 11, light chain variable region SEQ ID NO: 13 (antibody, listed as Mus musculus, V domains shown)
VH: QIQLVQSGPELKKPGETVKISCKASGYTFTDYSMHWVKQAPGKGLKWMGWINTETGEPTYADDFKGRFAFSLETSASTAYLQINNLKNEDTATYFCARIPLYYYGSRYWYFDVWGAGTTVTVSS
VL: DIQMTQSPASLSVSVGETVTITCRASENIYRNLAWYQQKQGKSPQLLVYAATNLADGVPSRFSGSGSGTQYSLKINSLQSEDFGSYYCQHFWGTPWTFGGGTKLEIK
In the case of B1, the “suppression of mouse EphrinA1-induced EphA4 autophosphorylation” value [1] is reported as 66% and the “activity relative to KYL peptide (times stronger)” value [2] is reported as ≥ 1,000 times.
